The test concerns the target T1, mouse integrin αvβ3 on NIH3T3 cells (mouse, UniProt P43406 31-1044; O54890 26-787).
T1 construct: whole, on cells; Presented on NIH3T3 transformants; also called αvβ3 integrin; 3T3/αvβ3
In words: cell adhesion assay on PS-coated wells pretreated with D89E. As for the experimental part: Peroxidase activity was detected using a peroxidase-detecting kit (Sumitomo Bakelite). To assay the ability of MFG-E8 to link the cells to phospholipids, MFG-E8 was bound to microtiter plates coated with phospholipids as described above. In tyrode buffer containing the cells (4×10⁴) (5 mM Hepes-NaOH buffer [pH 7.4], 135 mM NaCl, 5.4 mM KCl, 1.0 mM MgCl₂, 10 mM glucose, and 10 mg/ml BSA) was added to each well, and incubated at room temperature for 1 hour. The cells that had adhered to the plates were quantified by a CyQUANT Cell Proliferation Assay kit (Molecular Probes) using a fluorescent microplate reader (BioLumin 960, Molecular Dynamics) set at excitation wavelength of 485 nm and emission wavelength of 520 nm.
Therefore, the possibility that MFG-E8-L might bind to integrin-expressing cells after said cells are bound to phospholipids was investigated. Microtiter wells coated with PS or PE were successively incubated with three different concentrations (0.1, 1.0 and 2.0 μg/ml) of MFG-E8-L or D89E, and with NIH3T3 (3T3/WT) or αᵥβ₃ integrin-expressing transformants (3T3/αᵥβ₃), and subjected to cell adhesion assay. The number of cells attached to the wells was quantified as described in the methods described in Example A-6. […] D89E mutant was not capable of intermediating the adhering of NIH3T3 cells to the wells coated with PS. […]

T1 sequence (P43406 31-1044, chain 1 of 2): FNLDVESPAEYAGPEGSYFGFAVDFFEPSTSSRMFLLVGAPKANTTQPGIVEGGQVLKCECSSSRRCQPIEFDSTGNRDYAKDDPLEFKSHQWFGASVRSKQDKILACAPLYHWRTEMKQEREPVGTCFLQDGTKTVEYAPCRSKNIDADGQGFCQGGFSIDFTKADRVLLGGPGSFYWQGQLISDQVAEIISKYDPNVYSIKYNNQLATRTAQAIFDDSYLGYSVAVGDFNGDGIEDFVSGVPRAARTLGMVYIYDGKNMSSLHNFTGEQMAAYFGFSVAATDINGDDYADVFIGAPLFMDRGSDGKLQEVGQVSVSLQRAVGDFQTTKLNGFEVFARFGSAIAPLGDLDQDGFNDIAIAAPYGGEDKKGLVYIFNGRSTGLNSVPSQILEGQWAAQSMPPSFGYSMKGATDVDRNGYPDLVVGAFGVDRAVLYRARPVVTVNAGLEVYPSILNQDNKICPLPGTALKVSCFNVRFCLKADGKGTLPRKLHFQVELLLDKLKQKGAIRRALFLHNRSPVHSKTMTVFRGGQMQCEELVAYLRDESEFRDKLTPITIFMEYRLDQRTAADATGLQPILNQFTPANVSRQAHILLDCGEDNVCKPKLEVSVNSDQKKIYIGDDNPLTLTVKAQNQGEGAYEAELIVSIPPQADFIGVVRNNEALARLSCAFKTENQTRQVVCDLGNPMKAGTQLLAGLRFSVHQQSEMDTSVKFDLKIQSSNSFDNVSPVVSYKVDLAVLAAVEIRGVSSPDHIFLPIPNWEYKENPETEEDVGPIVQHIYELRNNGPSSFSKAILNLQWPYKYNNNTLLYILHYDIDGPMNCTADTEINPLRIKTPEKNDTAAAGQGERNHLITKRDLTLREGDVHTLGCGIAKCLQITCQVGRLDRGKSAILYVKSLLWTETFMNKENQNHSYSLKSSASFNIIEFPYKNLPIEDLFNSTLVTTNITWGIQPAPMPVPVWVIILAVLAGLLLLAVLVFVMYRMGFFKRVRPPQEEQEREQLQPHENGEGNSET
T1 sequence (O54890 26-787, chain 2 of 2): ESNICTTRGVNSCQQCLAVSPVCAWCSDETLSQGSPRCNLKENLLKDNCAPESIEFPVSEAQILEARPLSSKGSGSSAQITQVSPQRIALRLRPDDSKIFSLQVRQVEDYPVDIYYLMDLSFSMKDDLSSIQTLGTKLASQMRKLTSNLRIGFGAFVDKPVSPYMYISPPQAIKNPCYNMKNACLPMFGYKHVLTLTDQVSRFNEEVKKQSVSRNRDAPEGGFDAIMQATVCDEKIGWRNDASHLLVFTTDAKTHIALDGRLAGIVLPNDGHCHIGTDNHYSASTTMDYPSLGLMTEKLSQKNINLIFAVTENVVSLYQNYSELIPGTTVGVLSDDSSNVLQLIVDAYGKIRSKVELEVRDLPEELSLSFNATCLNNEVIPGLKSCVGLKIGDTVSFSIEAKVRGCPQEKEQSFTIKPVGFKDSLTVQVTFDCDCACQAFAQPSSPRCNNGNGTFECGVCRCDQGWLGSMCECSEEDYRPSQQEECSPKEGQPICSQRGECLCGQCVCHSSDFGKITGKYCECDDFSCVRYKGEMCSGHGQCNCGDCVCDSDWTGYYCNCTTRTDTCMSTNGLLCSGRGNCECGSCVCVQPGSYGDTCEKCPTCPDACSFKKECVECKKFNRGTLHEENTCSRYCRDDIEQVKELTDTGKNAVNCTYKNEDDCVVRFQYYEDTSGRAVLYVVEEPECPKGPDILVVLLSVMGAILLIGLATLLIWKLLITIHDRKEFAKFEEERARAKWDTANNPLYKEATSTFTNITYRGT

B1: D89E mutant of mouse MFG-E8-L (ligand)
chain: ASGDFCDSSLCLNGGTCLTGQDNDIYCLCPEGFTGLVCNETERGPCSPNPCYNDAKCLVTLDTQRGEIFTEYICQCPVGYSGIHCETETNYYNLDGEYMFTTAVPNTAVPTPAPTPDLSNNLASRCSTQLGMEGGAIADSQISASSVYMGFMGLQRWGPELARLYRTGIVNAWTASNYDSKPWIQVNLLRKMRVSGVMTQGASRAGRAEYLKTFKVAYSLDGRKFEFIQDESGGDKEFLGNLDNNSLKVNMFNPTLEAQYIRLYPVSCHRGCTLRFELLGCELHGCSEPLGLKNNTIPDSQMSASSSYKTWNLRAFGWYPHLGRLDNQGKINAWTAQSNSAKEWLQVDLGTQRQVTGIITQGARDFGHIQYVASYKVAHSDDGVQWTVYEEQGSSKVFQGNLDNNSHKKNIFEKPFMARYVRVLPVSWHNRITLRLELLGC
notes: Point mutation in the RGD motif of the second EGF domain; Expressed in human 293T cells; also called D89 mutant; not shown: FLAG marker peptide at the C-terminus (derivatives were detected with anti-FLAG)
On to B1, for which the binding result is “no binding (tested: 0.1, 1.0 and 2.0 µg/ml)”.

Values taken from patent US20060233806A1 (JAPAN SCIENCE AND TECHNOLOGY AGENCY, published 2006).
